This series in a line: soluble on expression in E. coli; label from the status in PepcDB or PDB records.
“MGSDKIHHHHHHMNNLFDRIASRYVDGAEVFYGWMNMSLNQIKRAKKLGIKTIVECASSHPLYQLKILEEEYQKWNIPFKVGSQKIYLKALKEIKEADFIKIPSDFVQETFIKNGIPEEKLIKIPFGVDLEKFQPKDNYNNEIFRAVFVGTVSIRKGIPYLLKAWSELNLKDAQLYVVGAISPDVKIIIAKYSKLKNIIFTGRVKDIVPILRESNVFVFPSIEEGSALVTYEAMASGLPSIVTYNSGSIVRHGKDGFVIPIRDIKSLKDGIQYFYENPSEVKRMGKNARKHVEKYTWYNYGENLYNELKRLGLL”: the “soluble on expression in E. coli” value is given as “not soluble”.
To “MSLGYLNNVTGYREDLLANRAIVKHGNFALLTPDGLVKNIIPGFENCDATILSTPKLGASFVDYLVTLHQNGGNQQGFGGEGIETFLYVISGNITAKAEGKTFALSEGGYLYCPPGSLMTFVNAQAEDSQIFLYKRCYVPVEGYAPWLVSGNASELERIHYEGMDDVILLDFLPKELGFDMNMHILSFAPGASHGYIETHVQEHGAYILSGQGVYNLDNNWIPVKKGDYIFMGAYSLQAGYGVGRGEAFSYIYSKDCNRDVEIEGGSHHHHHH” belongs “soluble”; to “GHMAESQALSDDIGFLLSRVGGMVLGAVNKALVPTGLRVRSYSVLVLACEQAEGVNQRGVAATMGLDPSQIVGLVDELEERGLVVRTLDPSDRRNKLIAATEEGRRLRDDAKARVDAAHGRYFEGIPDTVVNQMRDTLQSIAFPTFVEGS”, “soluble”.
As for “MTTEKEMKQIQNEFKERMDEGELLNCMRCGFCLPSCPTYIESGFQETHSPRGRIALMKAVADGMIEPDEDVERSLSLCLGCRACEPVCPSGVKYGQLLEEARDIIHQNKKHSLGERVMRKTAFHELFPHQNRMRSAVSLIGLYQRSGLQTAVRKSGMLRVLPEHLRTMEAVLPDVPKSKDMKHRPRFLPSIGPMKKRVAFFSGCLMDTMFLPTNNATLKLLQLAGCDIVIPPEQACCGALHGHSGEKNTGKELAKQNIAAFEALDVDAVITNAGGCGAFLTEYDHLLKDDPEWSERAAAFVQKLKDFSSVLVELDFHQMDLALETPQVVTYQDSCHLRNVMHTSLEPRQLLKSIKGAEFKEMEKADSCCGSAGIYNIVEVEMSMKILDSKMAAVKATEAILIVTANPGCLLQMKLGIEREGLSGKVRAVHLADLLLEAAGHKTS”, the “soluble on expression in E. coli” value is on record as “not soluble”.
“MGSDKIHHHHHHMKSELFYRKLEKCDLCPRNCGVNRLMGEKGACGVANSPVVSSWGPHFGEERILVGRGGSGTVFFTYCNLKCVYCQNYEISQLGIGKEITVEDLLRIFTELQDMGVENLNLVTPTHQIPFIVDAFERMEKEIPVVYNCGGYESVDTIISLEGFVDIYMPDFKYSDPELGEKLSGVKDYPRFALEALKVMIDQMGEPVIRNGVMKKGVLVRHLVLPGFLEDSFGVIDLLSTLEPKPLVNIMAQFYPAYRAKEYGLDRFITRDEYLKVVEYAKKKKLNLIEVERWLRWL”: the “soluble on expression in E. coli” value was “not soluble”.
The same measure for “MGSDKIHHHHHHMSKRLMPSTTALQCFEAAARHLSFTRAAQELHLTQSAVSKQVAQLEDMLSHSLFQRIRRRLHLTPAGALYLTEVNKILTQIDISSRYILSYGDETEVLRIATQPTFGARWLVPRLKGFGDRYPRIHLDVRNELEPFDLVQAKADVAFFFGQGTWPGATCIELFSEEVVPVCSPQLLASHRFDSAQALTEHRLLQCVSRPEAWHEWFLGLGLHSQNSYHGPRFDTFYLCIRAAISGCGIALIPRYLVAEELSEGKLVVAWDHPVASNGRHFIAHAEHAAEVPKIRAFVQWIRERVAEGD”: “not soluble”; for “MIFVLGGTSDSLLISDWLTETKRPFILSVATDYGETLAKQHAEKVFCGRLAKEAMLAKWQLEQIKLVIDATHPFATIVSETAMEACKEAGIPYIRFERTSEQTDNTYLVDDINEACKVAAKLGQRIFLTTGSKNLPEFVAGLKQQHIIARILPVSDVIRSAEELGLVADQIIGMKGPFTKEANRTQLEMTQADVLITKESGKQGGFQEKLTAAAELNIPVIVIRRKKLNYPIEINHLTELPEILTQLEV”: “not soluble”.
Take “MANQHFAKEAPETYWKTSTDLPSFPALQEDTECDVTIIGGGITGITTAYELTKRGFRVVLIEANQVLNGTTAHTTAKVTAQHDMIYDEFIRHFGLNHARLYYEANQNAIDYIKGIVDEHQIDCEWIEQDAYLYTANENAVQKIHTEHEAYTKLGIERDLIKDLPIPLGSKLALVMKNQAQFHPLQYLKALLEQIVQKGGRIYEETVALDIKKGERPEVVTKSRHAIKSRFIICCSHFPFYDGGGLYAARMYSDRSYVLAIKPKIEYPEGMYLSIDQPSVALRYTVVNGEKLILFSGVSHKTGQGKAMSTHYETLRQLAESTIGIESIPYYWSTQDLVTIDKIPFIGPMSENEDNILVATGFKKWGMTSSAVAATLLSDLVEKKENPYESIFTPSRFHLNPGLQKVISYNADVAKHLIKGKLEKPDVQFEDISPGEGKAVTINGRRAGAFRDETGCLHLVDTTCTHLGCEVEWNDSEHTWDCPCHGSRFKPSGEVVEGPAIKPLKQIDLDLEHHHHHH”: the “soluble on expression in E. coli” value is reported as “soluble”.
On to “MSLGFKEYYRAFPTYTKIESKEYKGRVETLGPILIKYMNKNRGKVLDLACGVGGFSFFLEDLGFDVVGLDNNPEMIEAAKRYAEKRSSKVNFVVGDAKNLPFENNSFDYVIFIDSIFHFTPSELNQVFKEVKRVIKPEGRFLIYFTDLRELLPNLKERLVIGEKYWVNRITTDTSERIATIEFKSEDDEFRVEFNIWGKTGVELLAKLYFTKEAEEKVGGYSYLIVYNPKEGHHHHHH”, for which the “soluble on expression in E. coli” value is “soluble”.
For “MGSDKIHHHHHHMYEKYIVEGLSDREIAYLIGCGKATVVRARQKHGIYREDVKMCDDYTLDNISEDLRTFIDGLLLGDACITEKGNLLITQNKRYDWLEYVKHRFQQFGLNVYFHCYKYKRRTSEVIADLYVLSTSRYELFRQLRERWYPDGIKRIPNDLVINDEGLAQWYLGDGSLTKQKNGYKLELSTHGFTLDENKFLQQKLKLLYGFDFRISKKHQYRYLRLFKSKQVHAFCSIVEPFIPPSYRNKVRCLHDYQWLKSWDVI”, the “soluble on expression in E. coli” value is listed as “not soluble”.
The same measure for “MINVSDLTQKLPEGSNAGVIAKNINQNQIIADYNGSTFMLPASTQKVFTAVAAKLALGDQFQFETALLSNGKIQNGNLDGNLIVSFTGDPDLTRGQLYSLLAELKKQGIKKINGDLVLDTSVFSSHDRGLGWIWNDLTMCFNSPPAAANIDNNCFYAELDANKNPGEIVKINVPAQFPIQVFGQVYVADSNEAPYCQLDVVVHDNNRYQVKGCLARQYKPFGLSFAVQNTDAYAAAIIQRQLRKLGIEFNGKVLLPQKPQQGQLLAKHLSKPLPDLLKKMMKKSDNQIADSLFRAVAFNYYKRPASFQLGTLAVKSILQKQGIRFGNSILADGSGLSRHNLVAPKTMLSVLEYIAKNEDKLHLMETFPIAGVDGTISGRGGLISPPLVKNVIAKTGSLKGVYNLAGFMTNARGEKVAFVQFINGYSTGDLESKTKRAPLVQFERNLYNELYKY”: “soluble”; for “MIANRPQHEKWAVIVNEFGEVGIDGAALLNDELAVAEIAGGCLCCVAGPQMTATVATLLRREKPDRLLIEASGLAHAAGVIDELRAKPLGEALEVAAVLTLVDPRQFIQPDYHRQPLYRDQISIADVLVANKIDTADIPTMEAFRAQAAALFPPKSLVGEVRDGQLDVAWLDAELAAKPRYRPAVLPDNASAWQSAGWTFDPELNFDGERLTRLFDGLPAKVPGLVRAKGVFRVLDSWVWLNWAAGQWGAAQVSWRRDSRFELIAPEFDAAAVEAWLKECLELEHHHHHH”: “not soluble”.
The same measure for “MSDAIVVGAGPNGLAAAVALARRGLKVTVLEAADEIGGGTRTSELTVPGLLHDHCSAVHPLGVGSPFLRTLGLERYGVTWAWPDVDLAHPLDGGRAGVLVRSMERTVRGLGPDGPAWERLFAPLAEDFDALTEDLLRPVPHLPAHPVELARFGLRALQPATTVARRWRGAEARALFAGAAAHLMHPLTGPTSSAVGLMLVGAAHRFGWPVARGGSRTITDALAALLAQLGGTIETGVRVDSLDQLAAARIVMLDTAPGAAARICGDRLPGRVRSAYEGWRHGPAAFKVDLAVQDGIPWTHEACRRAGTVHLGGTLEEVVRTEAQTAGGRMPERPFVLVGQQYLADPSRSRGDVHPIWAYAHVPHGYPGDATEAVLRQIERFAPGFRDRIVGIAARSTAELARSNTNFVGGDIVGGANTARQVALRPRVALDPYSTGIPGVYLCSAATPPGAGVHGMCGANAARSALRYLDRLEHHHHHH”: “not soluble”.
The same measure for “MSGLSMRNPERRIETNPFDVDAWNLLLREHQSRPIDQERDFYESLVKQFPNSGRYWKAYIEHELRSKNFENVEKLFSRCLVSVLNIDLWKCYIHYVFETKGQRDQYREEMAKAYDFALEKVGMDVQAYSIFTEYIAFLKKVPAVGQYAENQRITAVRKIYQKALATPMHNLELIWNDYCTYEKAINITLAEKLIAERGKEYQNARRVEKDLQQMTRGLNRQAVSVPPKGTATEFKQVELWKNLIAWEKTNPLQTEEYGQHARRVVYTYEQSLLCLGYYPDIWYEAAMFLQEASHTLDEKGDVKMAQVLKLETISLYERAITGLMKESKLLYFAYADFQEEHKQFEAVKNIYDRLLGIEHINPTLTYVQLMRFIRRSEGPNNARLVFKRAREDKRTGYQVFVAAALLEYNCMKDKEVAIRVFKLGLKKYENEPEFGLAYADFLSNLNEDNNTRVVFERILTSSKLPADKSIRIWDRFLDFESCVGDLASILKVEKRRKTAYEEAQKDQTMNHSMLVIDRYKFMDLMPCSGEQLKLIGYNALKGTESIAGPSFVGSKNVPTHGPQAASAIMGGAGGHADVARYGFPRPDISQMIPFKPRVNCTASFHPVPGGVFPPPQSVAHLMSLLPPPTCFIGPFINVELLCNMINNMQLPNVSYPKSEDNMLGPMLEQDVKKDMYQLLATTSDPSAVVRSSALSDLKRKRGDSDDEEDYSHLGAVIGSLGSRDAYKRRMNKKNE”: “not soluble”; for “MAFGVSHPVALDLEATSTDPSEAEVLEVAAVDGEGRVFHRYLATQRPLPPDHEVFQLTGIPYEEYEAKKVAPKEALEELLAFLGGRPLLGHNLLRYDLPLLQRHLEEAGLPRWQGEALDTLRLAHLLFPTPPGGLEGYRLGDLYAFLLGRPLEGAHRALNDAQATLAVFHRLLDRGRRALAQHPGLVRAWRELGLPEGHLFPEDEGLIKDLLAREADVEAFFVEKEGRPFPAPTDLGPDLLPKPRPAQRIKEFVQVAHGVAGQGLVGRERPLHEVLERGLRLAVGEAEEGAVEKEG”: “soluble”.
For the sequence “MRSYAIGDIHGHLSLLQEIHGRIAADRARTGDDEAPVVHIGDLVDRGPDSRGVVEYLRQGIEQGENWVVLKGNHDRMFAGFLRDPAHQDPGLRGDLSWLHPRLGGGPTLESYGVAHAADRPVAIVHREAVALVPAEHVAFIEALPAVYRRDEALFVHAGIRPGVPLAEQIEDDLVWIREPFLSDPRDHGMLVVHGHTAIDAVTHYGNRLNLDSGAAYGGPLSAVVIEGRSVWQLGPEGRRPIALEHHHHHH”, the “soluble on expression in E. coli” value is “not soluble”.
In the case of “MSAEPHIVIIGGGFSGAAVAIELLRLAPNGVRVTLLEPRQSPGAGVAYSTAEPTHRINVPAARMQLAGDEEGAFDHWYRHQPAFAVDVQALRPDGSVYPQRGQFGRYVAQRFADAAASSGGRLRHLRDRALAFHQGTVTTDGGLQFKADLLVLAISHPPPSLPPQAEAWRHHPALIANPWQPGALDAIAPHARVAVMGTGLTMADTVVTLDRLGH”, the “soluble on expression in E. coli” value is reported as “not soluble”.
In the case of “MKLTDYVKQVSLEDFGRPFIHHVQWNRRLRSTGGRFFPKDGHLDFNPKVYQELGLDVFRKIVRHELCHYHLYFQGKGYQHKDRDFKELLKAVDGLRFVPSLPNSNSKPIKLYRCQSCQQRYQRKRRIDTQRYRCGLCRGKLLLVNQPEDLEHHHHHH”, the “soluble on expression in E. coli” value is given as “not soluble”.

The values above are taken from the DeepSol protein solubility set.
